Experimental data as given in article PMC7652922.

Experiment: L-[14C]arginine to L-[14C]citrulline conversion, transfected HEK293, low glucose
Details: glycan lost; control: WT-eNOS

B1: endothelial nitric oxide synthase (eNOS): T866A (protein)
parent chain: MGNLKSVAQEPGPPCGLGLGLGLGLCGKQGPATPAPEPSRAPASLLPPAPEHSPPSSPLTQPPEGPKFPRVKNWEVGSITYDTLSAQAQQDGPCTPRRCLGSLVFPRKLQGRPSPGPPAPEQLLSQARDFINQYYSSIKRSGSQAHEQRLQEVEAEVAATGTYQLRESELVFGAKQAWRNAPRCVGRIQWGKLQVFDARDCRSAQEMFTYICNHIKYATNRGNLRSAITVFPQRCPGRGDFRIWNSQLVRYAGYRQQDGSVRGDPANVEITELCIQHGWTPGNGRFDVLPLLLQAPDDPPELFLLPPELVLEVPLEHPTLEWFAALGLRWYALPAVSNMLLEIGGLEFPAAPFSGWYMSTEIGTRNLCDPHRYNILEDVAVCMDLDTRTTSSLWKDKAAVEINVAVLHSYQLAKVTIVDHHAATASFMKHLENEQKARGGCPADWAWIVPPISGSLTPVFHQEMVNYFLSPAFRYQPDPWKGSAAKGTGITRKKTFKEVANAVKISASLMGTVMAKRVKATILYGSETGRAQSYAQQLGRLFRKAFDPRVLCMDEYDVVSLEHETLVLVVTSTFGNGDPPENGESFAAALMEMSGPYNSSPRPEQHKSYKIRFNSISCSDPLVSSWRRKRKESSNTDSAGALGTLRFCVFGLGSRAYPHFCAFARAVDTRLEELGGERLLQLGQGDELCGQEEAFRGWAQAAFQAACETFCVGEDAKAAARDIFSPKRSWKRQRYRLSAQAEGLQLLPGLIHVHRRKMFQATIRSVENLQSSKSTRATILVRLDTGGQEGLQYQPGDHIGVCPPNRPGLVEALLSRVEDPPAPTEPVAVEQLEKGSPGGPPPGWVRDPRLPPCTLRQALTFFLDITSPPSPQLLRLLSTLAEEPREQQELEALSQDPRRYEEWKWFRCPTLLEVLEQFPSVALPAPLLLTQLPLLQPRYYSVSSAPSTHPGEIHLTVAVLAYRTQDGLGPLHYGVCSTWLSQLKPGDPVPCFIRGAPSFRLPPDPSLPCILVGPGTGIAPFRGFWQERLHDIESKGLQPTPMTLVFGCRCSQLDHLYRDEVQNAQQRGVFGRVLTAFSREPDNPKTYVQDILRTELAAEVHRVLCLERGHMFVCGDVTMATNVLQTVQRILATEGDMELDEAGDVIGVLRDQQRYHEDIFGLTLRTQEVTSRIRTQSFSLQERQLRGAVPWAFDPPGSDTNSP
enzymatic_activity, fold_change: decreases, compared with T866A-eNOS, the activity of WT-eNOS was increased 8 to 10 folds
